# Experimental data reported in publication PMC7042235.
# Target: microtubules (polymerized porcine tubulin) (porcine) (UniProt P02550)
# Assay: co-sedimentation; purified MTBDs (1-32 uM) mixed with 5 uM paclitaxel-stabilised porcine MTs; 100 mM PIPES pH 6.8, 50 mM NaCl, 2 mM MgCl2, 1 mM EGTA; 210,000 x g, 25 °C, 10 min; pellets on SDS-PAGE, densitometry, one-site curve fitting
substance,measurement,value
"MTBD-High, MTBD(I3101C/V3222C) (from UniProt P36022 3096-3232) (domain or fragment)",Kd,4.8 µM
